The source of these data is US20100168443A1, “Ethoid-Containing Compounds, Methods for Preparing Ethoid-Containing Compounds, and Methods of Use” (UNIVERSITY OF VIRGINIA PATENT FOUNDATION, priority 2006, published 2010).

As usually defined, the Kd is the free concentration of one partner at which half of the binding sites on the other are occupied at equilibrium, for simple one-to-one binding.

In data set [1] the target is human GnRH recombinant receptor (AequoScreen cell line, FAST-0160A) (human) (UniProt P30968). Briefly: cell-based or functional assay.
human GnRH recombinant receptor (AequoScreen cell line, FAST-0160A) (human), sequence (P30968 whole entry): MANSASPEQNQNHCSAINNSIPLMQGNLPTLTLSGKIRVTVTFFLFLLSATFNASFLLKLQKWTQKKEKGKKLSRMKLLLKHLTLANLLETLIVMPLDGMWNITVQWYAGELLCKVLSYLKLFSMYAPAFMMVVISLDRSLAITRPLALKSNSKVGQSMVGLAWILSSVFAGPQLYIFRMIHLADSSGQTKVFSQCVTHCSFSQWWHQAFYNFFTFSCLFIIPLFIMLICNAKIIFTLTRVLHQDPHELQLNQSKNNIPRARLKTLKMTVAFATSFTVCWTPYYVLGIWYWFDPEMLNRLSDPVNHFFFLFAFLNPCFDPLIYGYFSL
Data set [2] has as its target T1, Tachykinin NK2 HUMAN receptor (Homo sapiens, UniProt P21452).
T1 construct: host or cells: CHO
T1 sequence (P21452 1-398): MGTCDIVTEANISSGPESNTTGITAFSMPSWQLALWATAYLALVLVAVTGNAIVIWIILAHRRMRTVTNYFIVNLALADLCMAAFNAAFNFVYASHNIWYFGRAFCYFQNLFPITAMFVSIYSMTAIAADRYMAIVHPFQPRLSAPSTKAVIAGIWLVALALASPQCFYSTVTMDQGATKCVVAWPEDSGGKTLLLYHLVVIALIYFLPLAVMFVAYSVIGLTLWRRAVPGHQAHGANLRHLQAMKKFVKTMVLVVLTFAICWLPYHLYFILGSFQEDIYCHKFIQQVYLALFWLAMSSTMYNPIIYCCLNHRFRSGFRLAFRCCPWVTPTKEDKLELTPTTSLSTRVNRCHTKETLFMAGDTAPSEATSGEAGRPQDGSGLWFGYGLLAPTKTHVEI
To be noted: radioligand; Human recombinant (CHO cells); cited from earlier work.

For data set [3], the target named is T2, DPP-4 peptidase (Homo sapiens, UniProt P27487).
T2 construct: purchased Sigma-Aldrich
T2 sequence (P27487 whole entry): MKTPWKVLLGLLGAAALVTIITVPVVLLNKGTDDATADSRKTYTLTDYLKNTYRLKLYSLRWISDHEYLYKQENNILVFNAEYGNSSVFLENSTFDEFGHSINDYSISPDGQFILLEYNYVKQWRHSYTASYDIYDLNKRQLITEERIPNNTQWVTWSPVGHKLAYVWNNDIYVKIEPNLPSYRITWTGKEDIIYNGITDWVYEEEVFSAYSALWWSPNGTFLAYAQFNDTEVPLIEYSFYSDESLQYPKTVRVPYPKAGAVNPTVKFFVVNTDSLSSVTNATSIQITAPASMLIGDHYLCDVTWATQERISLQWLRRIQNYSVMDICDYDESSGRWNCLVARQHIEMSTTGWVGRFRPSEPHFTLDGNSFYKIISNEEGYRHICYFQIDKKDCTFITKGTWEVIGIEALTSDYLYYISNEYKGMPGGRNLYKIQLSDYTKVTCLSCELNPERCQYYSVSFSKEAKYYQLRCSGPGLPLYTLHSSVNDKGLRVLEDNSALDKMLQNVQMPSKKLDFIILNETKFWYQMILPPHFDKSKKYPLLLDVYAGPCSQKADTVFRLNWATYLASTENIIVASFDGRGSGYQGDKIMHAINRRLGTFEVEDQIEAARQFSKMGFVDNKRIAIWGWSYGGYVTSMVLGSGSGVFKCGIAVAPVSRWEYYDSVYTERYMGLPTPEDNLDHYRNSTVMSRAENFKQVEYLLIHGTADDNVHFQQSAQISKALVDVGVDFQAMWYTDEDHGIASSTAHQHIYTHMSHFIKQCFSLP
Kind of data set: DPP4 enzyme stability assay. Format: in vitro ADME. To be noted: 1 mU DPP-4, tris buffer pH 7.5, 37° C, up to 8 hours incubation.

The target of data set [4] is T3, Tachykinin NK3 human receptor (human recombinant, CHO cells) (human, UniProt P29371 1-465).
T3 construct: whole, on cells
T3 sequence (looked up): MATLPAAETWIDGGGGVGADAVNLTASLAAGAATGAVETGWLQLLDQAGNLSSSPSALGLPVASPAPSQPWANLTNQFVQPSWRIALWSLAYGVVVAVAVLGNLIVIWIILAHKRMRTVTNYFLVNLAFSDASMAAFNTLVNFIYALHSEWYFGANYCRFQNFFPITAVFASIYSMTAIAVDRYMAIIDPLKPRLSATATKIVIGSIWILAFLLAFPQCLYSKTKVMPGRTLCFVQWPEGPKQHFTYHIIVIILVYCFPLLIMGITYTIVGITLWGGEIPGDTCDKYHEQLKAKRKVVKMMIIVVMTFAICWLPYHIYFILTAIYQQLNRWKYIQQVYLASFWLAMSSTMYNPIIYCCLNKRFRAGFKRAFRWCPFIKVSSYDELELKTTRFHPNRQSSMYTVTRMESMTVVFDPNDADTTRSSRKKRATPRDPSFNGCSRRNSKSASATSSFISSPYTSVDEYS
Kind of data set: radioligand binding, human recombinant NK3 in CHO cells (MDS Pharma assay #255710; printed as assay parameter).

Where a SMILES comes first, the peptide text is derived from it. Where no end group is shown, it is not given here. [ ]: non-standard residue; d: D form. NMeF = CN[C@@H](Cc1ccccc1)C(=O)O; Nle = CCCC[C@H](N)C(=O)O

In the case of [D-Trp6] LHRH (Bachem, H4075) (peptide), in data set [1], the EC50, aequorin luminescence agonist assay (AequoScreen cells) worked out at 140 pM and the EC50, historical value of the same assay is 380 pM. `CC(=O)NC1(c2ccccc2)CCN(CC[C@H](CN(C)C(=O)c2ccccc2)c2ccc(Cl)c(Cl)c2)CC1` [[3H] SR-48968]: the equilibrium dissociation constant (Kd) in data set [2] is 250 pM. For the molecule `CCCC[C@H](NC(=O)[C@@H](NC(=O)[C@H](CC(=O)O)NC(=O)[C@H](CCC(N)=O)NC(=O)[C@H](CC(C)C)NC(=O)[C@H](CC(C)C)NC(=O)[C@H](CCCCN)NC(=O)[C@H](CCCNC(=N)N)NC(=O)[C@H](C)NC(=O)[C@H](CO)NC(=O)[C@H](CC(C)C)NC(=O)[C@H](CCC(N)=O)NC(=O)CNC(=O)[C@H](CC(C)C)NC(=O)[C@@H](NC(=O)[C@H](CCCCN)NC(=O)[C@H](CCCNC(=N)N)NC(=O)[C@H](Cc1ccc(O)cc1)NC(=O)[C@H](C)NC(=O)[C@H](C)NC(=O)[C@@H](NC(=O)[C@H](Cc1ccccc1)NC(=O)[C@@H](NC(=O)[C@H](C)NC(=O)[C@H](CC(=O)O)NC(=O)[C@H](C)NC(=O)[C@@H](N)Cc1ccc(O)cc1)[C@@H](C)CC)[C@@H](C)O)C(C)C)[C@@H](C)CC)C(=O)N[C@@H](CO)C(=O)N[C@@H](CCCNC(=N)N)C(N)=O` [peptide control] (H-YADAIFTAAYRKVLGQLSARKLLQDI[Nle]SR-NH2), the “DPP-4 peptidase resistance (degradation by HPLC-MS)” value in data set [3] is given as “substantially cleaved”.

Turning to DMHDFF[NMeF]GLM-NH2 (ends and bridges not checked; also: 125I label, position not given here) [[125I] MePhe7-Neurokinin B], the Kd in data set [4] worked out at 280 pM.
